Molecular target: human prion protein (hPrP), amino acid residues 23-230 (human) (UniProt P04156)
Experiment: high-speed atomic force microscopy (HS-AFM)

Substance: human prion protein (hPrP), amino acid residues 23-230, P04156 23-230 (domain or fragment; other documents disagree on this pair)
- stoichiometry N: 6

From article PMC8049198
